The target of assay [1] is CRIB domain of PAK1 (residues 65-150, extended CRIB domain) with C-terminal 6x Histidine tag (UniProt Q13153). As to the kind of experiment: ITC. (ITC needs no label: the signal is the heat of the interaction.)
For assay [2] the target is unchanged. In words: ITC at 25 °C, experiment 1. Set-up: unit not given here.
The target is the same in assay [3]. As to the kind of experiment: ITC at 25 °C, experiment 2. The arrangement: unit not given here.
Assay [4] shares this target. As to the kind of experiment: ITC at 25 °C, experiment 1, stoichiometry of one-site model.
Assay [5] has the same target. As to the kind of experiment: ITC at 25 °C, experiment 2, stoichiometry of one-site model.
Assay [6] shares this target. In words: ITC at 25 °C, PA-Rac1 mutant injected into PAK1 CRIB (10 µM), experiment 2; column head prints 'mM', paragraph 152 gives µM.
Assay [7] has the same target. As to the kind of experiment: ITC at 25 °C, PA-Rac1 mutant injected into PAK1 CRIB (10 µM), experiment 1; column head prints 'mM', paragraph 152 and the legend of FIG. 3 give µM.
Assay [8] has the same target. In words: ITC at 25 °C, PA-Rac1 mutant injected into PAK1 CRIB (10 µM), experiment 2; column head prints 'mM', paragraph 152 gives 220-280 nM.
For assay [9] the target is unchanged. As to the kind of experiment: ITC at 25 °C, PA-Rac1 mutant injected into PAK1 CRIB (10 µM), experiment 1; column head prints 'mM', paragraph 152 and the legend of FIG. 3 give µM / nM.

The text below walks through data of patent US20120165204A1.

Consider “PA-Rac1 C450A (dark state mutant) with N-terminal six Histidine tag (from UniProt P63000 4-192)”, for which the fold weaker affinity than the lit state mimetic I539E in assay [1] was 10 fold. Also, the ΔH is -7000 in [2] and -5600 in [3]. In addition, the results for the ΔS in assay [2] and in assay [3] were 2.6 and 6.6, respectively. Moreover, the N in assay [4] is 1; in assay [5], 0.64. Further, the dissociation constant (Kd) – broadly, a measure of binding affinity in units of concentration – in assay [6] came to 3.1 µM; in [7], 2300 nM.
Regarding “PA-Rac1 I539E (lit state mutant) with N-terminal six Histidine tag (from UniProt P63000 4-192)”, the results for the ΔS in assay [2] and in assay [3] were -30 and -31, respectively. The same substance had a ΔH in assay [3] of -18000. In addition, the N in assay [4] and in assay [5] was 0.95 in each case. Besides, the figures for the Kd in assay [8] and in assay [9] were 280 nM and 220 nM, respectively.
